Source: patent US20240148885A1, “TARGETED BIFUNCTIONAL DEGRADERS” (YALE UNIVERSITY, priority 2021, published 2024)
Read-outs that look alike come from different tables or passages of the source.

Columns and labels:
streptavidin AF488 = streptavidin AF488 (Streptomyces avidinii, UniProt P22629); experiment: Degradation of streptavidin AF488 (FIG. 12); format: cell-based
Text: Some studies have been done on other bifunctional molecules comprising an LRP1 binding motif depicted in FIG. 2 and a biotin Target binding motif, wherein these bifunctional molecules also noncovalently bind streptavidin (FIG. 11).

streptavidin = streptavidin (Streptomyces avidinii, UniProt P22629); experiment: ELISA: biotinylated Angiopep-2 binding to streptavidin (FIG. 7)
Sequence of streptavidin (P22629 25-183, species assumed): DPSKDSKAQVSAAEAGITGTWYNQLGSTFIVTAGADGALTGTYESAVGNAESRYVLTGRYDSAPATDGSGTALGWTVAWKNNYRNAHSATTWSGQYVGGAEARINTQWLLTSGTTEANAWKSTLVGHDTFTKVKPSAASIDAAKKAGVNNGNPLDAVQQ

astrocytes = experiment: Cellular assay: internalization of streptavidin in astrocytes (FIG. 9); format: cell-based; details: noncovalently bound cargo
streptavidin AF647 = streptavidin AF647 (Streptomyces avidinii, UniProt P22629); experiment: Saturable delivery (uptake) of streptavidin AF647 (FIG. 6); format: cell-based; details: increasing concentration of bifunctional molecule, cells not given
Sequence of streptavidin AF647 (P22629 25-183): as the sequence (P22629 25-183, species assumed) above

[1] = test system: murine brain endothelial cells; details: noncovalently bound streptavidin AF647 cargo, FIG. 8, FIG. 9

Sequence of streptavidin AF488 (P22629 25-183): as the sequence (P22629 25-183, species assumed) above

“Ac.Ac.Biotin Angiopep-2: Angiopep-2 modified via acetylation and bonded to a biotin Target binding motif” was tested, and the “degradation of target protein streptavidin AF488” value (streptavidin AF488) was “mediated degradation of streptavidin AF488”.

For biotinylated Angiopep-2, the “binding to streptavidin (ELISA)” value (streptavidin) was “binds streptavidin”, the “internalization of streptavidin into astrocytes” value (astrocytes) was “mediated internalization of target protein Streptavidin” and the “level of streptavidin AF647 uptake” value (streptavidin AF647) was “saturable delivery of streptavidin AF647”. For the same substance, the “delivery / internalization of streptavidin into brain endothelial cells” value [1] was “delivers streptavidin AF647 to murine brain endothelial cells” and the “delivery / internalization of streptavidin into brain endothelial cells” value ([1]; listed as Angiopep-2-Biotin) was “mediated internalization of target protein Streptavidin”.
